Measurements reported in PMC11286566.

Experiments:
[1] = target: Catcher-AP205 (Catcher of the isopeptide linkage system, flexible linker, bacteriophage AP205 VLP subunit) (bacteriophage AP205); experiment: SDS-PAGE densitometry of the covalent conjugate; catcher-AP205 and gE-Tag mixed at a 1:2 molar ratio, 24 h at 22°C, then dialysed into 50 mM glycine, 25 mM sodium citrate, 0.1% Tween 20, pH 6.2; coupling efficiency by densitometry of reduced SDS-PAGE; isopeptide bond between Tag and Catcher
[2] = target: Catcher-Ferritin (Catcher of the isopeptide linkage system, flexible linker, Ferritin NP subunit); experiment: SDS-PAGE densitometry of the covalent conjugate; catcher-Ferritin and gE-Tag mixed at a 1:6 molar ratio, 24 h at 4°C; uncoupled gE-Tag removed by SEC (Superdex 200 Increase, 20 mM Tris-HCl, 25% sucrose w/v, pH 7.4); coupling efficiency by densitometry of reduced SDS-PAGE; isopeptide bond between Tag and Catcher

Substance: gE-Tag (extracellular domain of VZV glycoprotein E with a C-terminal Tag of the isopeptide linkage system) (from UniProt P09259 31-544)
- conjugation efficiency [1]: > 70%
- conjugation efficiency [2]: > 70%
